The values that follow come from US20090099029A1, “Methods and substrates for conducting assays” (Invitrogen Corporation, priority 2005, published 2009).

For the first data set, the system named is 39 kinases (Table 4).
Experiment: not given
As to conditions: known general specificities of the inhibitors; cited from earlier work.
Regarding `Oc1ccc(-c2nc(-c3ccncc3)c(-c3ccc(F)cc3)[nH]2)cc1` [SB 202190], the “General Specificity” value is on record as “Serine/threonine”.

The next data set has as its system kinases of Table 6 on Myelin Basic Protein (MBP). As to the kind of experiment: Kinase assay using MBP substrate, ProQ Diamond stain (Table 6). The data set is classed as biochemical. The settings on record: kinase printed on MBP-coated slide; 20 uM ATP, 30° C.; ProQ Diamond Microarray Stain; graded Strong/Weak/Negative. On the procedure: In this illustrative example, four-well slides were designed with a hydrophobic mask surrounding 4-wells of aldehyde- or epoxy-coated glass (smooth or ES grade; Erie Scientific (Portsmouth, N.H.)). […] Bovine, dephosphorylated, Myelin Basic Protein (MBP) was purchased from Upstate Biotechnology (#13-110). MBP was diluted to 1 mg/ml in PBS, applied to the slide surface, covered with a coverslip, and left overnight at 4° C. to coat the slide with the MBP. Slides were washed 3 times with water and spun dry before printing.
Kinases were purchased from Panvera (Invitrogen, Carlsbad, Calif.), diluted in printing buffer (50 mM Tris pH 7.5, 25% glyercol, 0.05% TritonX-100, 2 mM DTT) and deposited using a GeneMachine OmniGrid100. Slides were stored at −20° C.
Reactions were performed following removal of the slide from the freezer. Reaction buffer (20 mM HEPES pH 7.5, 4 mM MgCl2, 2 mM DTT, 20 uM ATP, 5% DMSO) was added with or without inhibitor, a coverslip applied, and the slide placed at 30° C. for the appropriate reaction time. The slide was washed with water to stop the reaction (3 times) and spun dry. ProQ Diamond Microarray Stain (Invitrogen #P33706) was applied, covered with a coverslip, and the slide was incubated in the dark at room temperature for 30 minutes. The slide was destained and washed three times with water, and spun dry.
Regarding ABL1, the “MBP Kinase Activity” value is listed as “Weak”. Same read-out and setting: to ADRBK1(GRK2) belongs “Negative”. The same measure, in the same setting: under AKT1 stands “Strong”; under BLK, “Weak”; under CDK5/p35, “Strong”. Still for that read-out and setting: to CHEK2 belongs “Strong”; to CLK1, “Strong”.

For the compound CLK3, the “MBP Kinase Activity” value was “Strong”. Still for that read-out and setting: to CLK4 belongs “Negative”; to CSNK1E(CK1eps), “Negative”. Turning to CSNK1G1(CK1gamma1), the “MBP Kinase Activity” value was “Negative”.

Consider CSNK1G2, for which the “MBP Kinase Activity” value is reported as “Negative”. Same read-out and setting: to CSNK1G3 belongs “Weak”; to CSNK2A1(CK2alpha1), “Strong”. Same read-out and setting: under EPHA7 stands “Weak”; under ERBB2, “Negative”.

On to FGFR1, for which the “MBP Kinase Activity” value is recorded as “Strong”. The same measure, in the same setting: under FGR stands “Weak”.

Regarding FYN, the “MBP Kinase Activity” value is given as “Strong”. As for GRK5, the “MBP Kinase Activity” value was “Negative”. In the case of GSK3B, the “MBP Kinase Activity” value is listed as “Negative”.

As to HCK, the “MBP Kinase Activity” value was “Strong”. The same measure, in the same setting: to IKBKB belongs “Weak”; to INSR, “Strong”.

As to KDR(VEGFR2), the “MBP Kinase Activity” value was “Strong”. Same read-out and setting: under LCK stands “Strong”. Still for that read-out and setting: to LYNA belongs “Weak”; to MAP2K1(MEK1), “Negative”; to MAP2K2(MEK2), “Negative”. The same measure, in the same setting: to MAP4K5(KHS1) belongs “Negative”; to MAPK1(ERK2), “Strong”.

Take MAPK3(ERK1): the “MBP Kinase Activity” value is “Strong”. Take MAPKAPK2: the “MBP Kinase Activity” value is recorded as “Strong”. The same measure, in the same setting: to MLCK belongs “Negative”. On the same count and under the same terms, to MST4 belongs “Negative”.

With NEK6, the “MBP Kinase Activity” value is “Negative”.

NEK7: the “MBP Kinase Activity” value was “Negative”.

In the case of NTRK1, the “MBP Kinase Activity” value is listed as “Strong”. As to NTRK2, the “MBP Kinase Activity” value is listed as “Strong”. On to NTRK3, for which the “MBP Kinase Activity” value was “Strong”. Same read-out and setting: under PHKG1 stands “Negative”; under PIM1, “Strong”; under PIM2, “Weak”. Take PKN1(PRK1): the “MBP Kinase Activity” value is given as “Strong”.

As for PLK1, the “MBP Kinase Activity” value is “Negative”. The same measure, in the same setting: under PRKCA stands “Strong”; under PRKCB1, “Strong”. In the case of PRKCB2, the “MBP Kinase Activity” value is given as “Strong”. On the same count and under the same terms, under PRKCD stands “Strong”; under PRKCG, “Strong”. On the same count and under the same terms, to PRKCI belongs “Strong”; to PRKCQ, “Strong”. Turning to PTK6(BRK), the “MBP Kinase Activity” value is “Strong”.

Take RPS6KA3(RSK2): the “MBP Kinase Activity” value is “Strong”. For the compound RPS6KA5(MSK1), the “MBP Kinase Activity” value is “Weak”. The same measure, in the same setting: under STK6(AuroraA) stands “Weak”; under STK24(MST3), “Weak”. On the same count and under the same terms, under STK25(YSK1) stands “Strong”; under TBK1, “Strong”; under WEE1, “Negative”. Take YES1: the “MBP Kinase Activity” value is “Weak”.
